What was measured:
[1] = In vivo uptake and tissue distribution of 125I-TGFα from TJ-TGFα formulation on wounded cheek pouch; design: species or system Golden Syrian hamsters; conditions: for Distribution of 125I-TGFα in the Tissues: Skin: 25 cm^2 skin on back; for Distribution of 125I-TGFα in the Tissues: Blood / Distribution of 125I-TGFα in the Tissues: Cecum / Distribution of 125I-TGFα in the Tissues: Colon / Distribution of 125I-TGFα in the Tissues: Esophagus / Distribution of 125I-TGFα in the Tissues: Kidney / Distribution of 125I-TGFα in the Tissues: Liver / Distribution of 125I-TGFα in the Tissues: Small Intestine / Distribution of 125I-TGFα in the Tissues: Stomach / Distribution of 125I-TGFα in the Tissues: Submaxillary Gland / Distribution of 125I-TGFα in the Tissues: Thyroid / Distribution of 125I-TGFα in the Tissues: Tongue: cheek pouch wound; for Distribution of 125I-TGFα in the Tissues: Cheek Pouch: right-hand side cheek pouch (application site)
Excerpt: (§1) The TGFα-containing ointment composition of Example 2 (TJ-TGFα formulation) was subjected, both in vitro and in vivo, to evaluation to meet the therapeutical requirements for oral mucositis. The in vitro evaluation included TGFα release and extraction from the composition, autoclave sterilizability and the bioactivity and stability of TGFα in the composition. The in vivo evaluation included TGFα uptake and tissue distribution of absorbed TGFα from hamster's cheek pouch.
(§2) B. The in vivo uptake of TGFα from the TJ-TGFα formulation was determined in Golden Syrian hamsters, female, approximately 150 g using an ^125 I-TGFα formulation (specific activity-45 μci/μg), the hamster's cheek pouch having a mechanically created wound. A pharmacokinetic study of tissue distribution of TGFα absorbed by the hamsters was also conducted. The methods employed were as follows:
(§3) 1. Fast hamsters overnight.
(§4) 2. Anesthetize hamsters by I.M. injection of ketamine HCl.
(§5) 3. Create a 2 mm diameter wound on the right-hand side of hamster's cheek pouch by a biopsy punch.
(§6) 4. Following the removal of the debridement and blood clot, administer 20 μl TJ-TGFα formulation containing 26 μci 125I-TGFα onto the wound area by a Gilson Microman.
(§7) 5. Keep the hamsters in their cages and give no water or food during the course of 6 hours study.
(§8) 6. Select three hamsters at time 15 minutes, 30 minutes, 1 hour, 2 hours, 4 hours and 6 hours and select one hamster at 24 hours for TGFα uptake and tissue distribution study.
7. Punch a needle into the hamster's heart and withdrawn 1 ml blood by a 5 ml syringe.
(§9) 8. Sacrifice hamster by inhalation of an overdose of carbon dioxide vapor from dry ice in a closed chamber.
(§10) 9. Immediately after sacrificing, remove the liver, kidney, thyroid, submaxillary gland, esophagus, stomach, small intestine, cecum, colon, 25 cm^2 skin on back, tongue and right-hand side of cheek pouch.
(§11) 11. Count the CPM of ^125 I-TGFα that distributed in the hamster's tissue and GI contents.

[2] = In vivo distribution of 125I-TGFα in the GI contents from TJ-TGFα formulation on wounded cheek pouch; design: species or system Golden Syrian hamsters; conditions: cheek pouch wound
Excerpt: as §1, §2, §3, §4, §5, §6, §7, §8, §9, §10
10. Flush the contents of esophagus, stomach, small intestine and cecum with water and collect the contents separately into a test tube.
as §11

## ^125 I-TGFα: 125I-labelled TGFα (specific activity 45 μci/μg) administered in TJ-TGFα formulation onto the hamster cheek pouch wound
[1]; 15 min.
  Distribution of 125I-TGFα in the Tissues: Skin: 0.04%
  Distribution of 125I-TGFα in the Tissues: Blood: 0.01%
  Distribution of 125I-TGFα in the Tissues: Cecum: 0.303%
  Distribution of 125I-TGFα in the Tissues: Colon: 0.01%
  Distribution of 125I-TGFα in the Tissues: Esophagus: 0.001%
  Distribution of 125I-TGFα in the Tissues: Kidney: 0.02%
  Distribution of 125I-TGFα in the Tissues: Liver: 0.03%
  Distribution of 125I-TGFα in the Tissues: Small Intestine: 0.01%
  Distribution of 125I-TGFα in the Tissues: Stomach: 0.01%
  Distribution of 125I-TGFα in the Tissues: Submaxillary Gland: 0.02%
  Distribution of 125I-TGFα in the Tissues: Thyroid: 0.005%
  Distribution of 125I-TGFα in the Tissues: Tongue: 0.85%
  Distribution of 125I-TGFα in the Tissues: Cheek Pouch: 76%
[1]; 0.5 hrs.
  Distribution of 125I-TGFα in the Tissues: Skin: 0.06%
  Distribution of 125I-TGFα in the Tissues: Blood: 0.02%
  Distribution of 125I-TGFα in the Tissues: Cecum: 0.01%
  Distribution of 125I-TGFα in the Tissues: Colon: 0.02%
  Distribution of 125I-TGFα in the Tissues: Esophagus: 0.01%
  Distribution of 125I-TGFα in the Tissues: Kidney: 0.07%
  Distribution of 125I-TGFα in the Tissues: Liver: 0.07%
  Distribution of 125I-TGFα in the Tissues: Small Intestine: 0.05%
  Distribution of 125I-TGFα in the Tissues: Stomach: 0.03%
  Distribution of 125I-TGFα in the Tissues: Submaxillary Gland: 0.05%
  Distribution of 125I-TGFα in the Tissues: Thyroid: 0.02%
  Distribution of 125I-TGFα in the Tissues: Tongue: 3.13%
  Distribution of 125I-TGFα in the Tissues: Cheek Pouch: 30%
[1]; 1 hr.
  Distribution of 125I-TGFα in the Tissues: Skin: 0.03%
  Distribution of 125I-TGFα in the Tissues: Blood: 0.04%
  Distribution of 125I-TGFα in the Tissues: Cecum: 0.02%
  Distribution of 125I-TGFα in the Tissues: Colon: 0.04%
  Distribution of 125I-TGFα in the Tissues: Esophagus: 0.01%
  Distribution of 125I-TGFα in the Tissues: Kidney: 0.07%
  Distribution of 125I-TGFα in the Tissues: Liver: 0.09%
  Distribution of 125I-TGFα in the Tissues: Small Intestine: 0.04%
  Distribution of 125I-TGFα in the Tissues: Stomach: 0.05%
  Distribution of 125I-TGFα in the Tissues: Submaxillary Gland: 0.04%
  Distribution of 125I-TGFα in the Tissues: Thyroid: 0.02%
  Distribution of 125I-TGFα in the Tissues: Tongue: 4.82%
  Distribution of 125I-TGFα in the Tissues: Cheek Pouch: 70%
[1]; 2 hrs.
  Distribution of 125I-TGFα in the Tissues: Skin: 0.10%
  Distribution of 125I-TGFα in the Tissues: Blood: 0.05%
  Distribution of 125I-TGFα in the Tissues: Cecum: 0.06%
  Distribution of 125I-TGFα in the Tissues: Colon: 0.06%
  Distribution of 125I-TGFα in the Tissues: Esophagus: 0.01%
  Distribution of 125I-TGFα in the Tissues: Kidney: 0.14%
  Distribution of 125I-TGFα in the Tissues: Liver: 0.17%
  Distribution of 125I-TGFα in the Tissues: Small Intestine: 0.07%
  Distribution of 125I-TGFα in the Tissues: Stomach: 0.10%
  Distribution of 125I-TGFα in the Tissues: Submaxillary Gland: 0.20%
  Distribution of 125I-TGFα in the Tissues: Thyroid: 0.14%
  Distribution of 125I-TGFα in the Tissues: Tongue: 3.57%
  Distribution of 125I-TGFα in the Tissues: Cheek Pouch: 74%
[1]; 4 hrs.
  Distribution of 125I-TGFα in the Tissues: Skin: 0.14%
  Distribution of 125I-TGFα in the Tissues: Blood: 0.13%
  Distribution of 125I-TGFα in the Tissues: Cecum: 0.04%
  Distribution of 125I-TGFα in the Tissues: Colon: 0.13%
  Distribution of 125I-TGFα in the Tissues: Esophagus: 0.26%
  Distribution of 125I-TGFα in the Tissues: Kidney: 0.23%
  Distribution of 125I-TGFα in the Tissues: Liver: 0.26%
  Distribution of 125I-TGFα in the Tissues: Small Intestine: 0.12%
  Distribution of 125I-TGFα in the Tissues: Stomach: 0.74%
  Distribution of 125I-TGFα in the Tissues: Submaxillary Gland: 0.42%
  Distribution of 125I-TGFα in the Tissues: Thyroid: 0.39%
  Distribution of 125I-TGFα in the Tissues: Tongue: 3.37%
  Distribution of 125I-TGFα in the Tissues: Cheek Pouch: 74%
[1]; 6 hrs.
  Distribution of 125I-TGFα in the Tissues: Skin: 0.13%
  Distribution of 125I-TGFα in the Tissues: Blood: 0.13%
  Distribution of 125I-TGFα in the Tissues: Cecum: 0.08%
  Distribution of 125I-TGFα in the Tissues: Colon: 0.12%
  Distribution of 125I-TGFα in the Tissues: Esophagus: 0.27%
  Distribution of 125I-TGFα in the Tissues: Kidney: 0.27%
  Distribution of 125I-TGFα in the Tissues: Liver: 0.24%
  Distribution of 125I-TGFα in the Tissues: Small Intestine: 0.15%
  Distribution of 125I-TGFα in the Tissues: Stomach: 1.06%
  Distribution of 125I-TGFα in the Tissues: Submaxillary Gland: 0.77%
  Distribution of 125I-TGFα in the Tissues: Thyroid: 0.88%
  Distribution of 125I-TGFα in the Tissues: Tongue: 1.25%
  Distribution of 125I-TGFα in the Tissues: Cheek Pouch: 84%
[1]; 24 hrs.
  Distribution of 125I-TGFα in the Tissues: Skin: 0.13%
  Distribution of 125I-TGFα in the Tissues: Blood: 0.22%
  Distribution of 125I-TGFα in the Tissues: Cecum: 0.05%
  Distribution of 125I-TGFα in the Tissues: Colon: 1.57%
  Distribution of 125I-TGFα in the Tissues: Esophagus: 0.04%
  Distribution of 125I-TGFα in the Tissues: Kidney: 0.24%
  Distribution of 125I-TGFα in the Tissues: Liver: 0.59%
  Distribution of 125I-TGFα in the Tissues: Small Intestine: 0.40%
  Distribution of 125I-TGFα in the Tissues: Stomach: 1.23%
  Distribution of 125I-TGFα in the Tissues: Submaxillary Gland: 0.77%
  Distribution of 125I-TGFα in the Tissues: Thyroid: 2.84%
  Distribution of 125I-TGFα in the Tissues: Tongue: 0.66%
  Distribution of 125I-TGFα in the Tissues: Cheek Pouch: 21%
[2]; 15 min.
  Distribution of 125I-TGFα in the GI Contents: Cecum: 0.003%
  Distribution of 125I-TGFα in the GI Contents: Esophagus: 0.00005%
  Distribution of 125I-TGFα in the GI Contents: Small Intestine: 0.003%
  Distribution of 125I-TGFα in the GI Contents: Stomach: 0.03%
[2]; 0.5 hrs.
  Distribution of 125I-TGFα in the GI Contents: Cecum: 0.01%
  Distribution of 125I-TGFα in the GI Contents: Esophagus: 0.01%
  Distribution of 125I-TGFα in the GI Contents: Small Intestine: 0.01%
  Distribution of 125I-TGFα in the GI Contents: Stomach: 0.056%
[2]; 1 hr.
  Distribution of 125I-TGFα in the GI Contents: Cecum: 0.02%
  Distribution of 125I-TGFα in the GI Contents: Esophagus: 0.002%
  Distribution of 125I-TGFα in the GI Contents: Small Intestine: 0.02%
  Distribution of 125I-TGFα in the GI Contents: Stomach: 0.20%
[2]; 2 hrs.
  Distribution of 125I-TGFα in the GI Contents: Cecum: 0.02%
  Distribution of 125I-TGFα in the GI Contents: Esophagus: 0.01%
  Distribution of 125I-TGFα in the GI Contents: Small Intestine: 0.02%
  Distribution of 125I-TGFα in the GI Contents: Stomach: 0.40%
[2]; 4 hrs.
  Distribution of 125I-TGFα in the GI Contents: Cecum: 0.04%
  Distribution of 125I-TGFα in the GI Contents: Esophagus: 0.37%
  Distribution of 125I-TGFα in the GI Contents: Small Intestine: 0.06%
  Distribution of 125I-TGFα in the GI Contents: Stomach: 4.1%
[2]; 6 hrs.
  Distribution of 125I-TGFα in the GI Contents: Cecum: 0.05%
  Distribution of 125I-TGFα in the GI Contents: Esophagus: 0.27%
  Distribution of 125I-TGFα in the GI Contents: Small Intestine: 0.05%
  Distribution of 125I-TGFα in the GI Contents: Stomach: 7.8%
[2]; 24 hrs.
  Distribution of 125I-TGFα in the GI Contents: Cecum: 2.63%
  Distribution of 125I-TGFα in the GI Contents: Esophagus: 0.01%
  Distribution of 125I-TGFα in the GI Contents: Small Intestine: 0.52%
  Distribution of 125I-TGFα in the GI Contents: Stomach: 5.5%

Source: patent US5578310A, “Topical bioadhesive ointment compositions and their use in wound healing” (Berlex Laboratories Inc., priority 1994, dated 1996)
